A short description of series [1]: viscosimetry; falling-ball micro-viscometer, 20 °C; Tpm 2 mg/mL in 30 mM Hepes-Na pH 7.3, 100 mM NaCl, 4 mM DTT; viscosity over buffer viscosity; end-to-end interaction of adjacent Tpm molecules. As to conditions: other: viscosimetry.
In series [2] the target is filamentous actin (F-actin) from rabbit m. psoas (rabbit) (UniProt P68135). As to the kind of experiment: temperature dependence of light scattering; thermally induced dissociation of Tpm from phalloidin-stabilized F-actin; 20 µM F-actin, 10.5 µM Tpm, 30 mM Hepes-Na pH 7.3, 100 mM NaCl; light scattering at 90°, 350 nm, heating 1 °C/min; Tdiss: temperature of a 50% decrease.

For series [3] the target is unchanged. Kind of series: co-sedimentation; 10 µM F-actin with 0.5 to 7.5 µM Tpm in 30 mM Hepes-Na pH 7.3, 200 mM NaCl; 40 min at 25 °C, then 40 min at 100,000 g at 4 °C; supernatants and pellets by SDS-PAGE; apparent affinity (K50%: Tpm concentration at which half of the actin is saturated).

For “wild-type cardiac tropomyosin 1.1 isoform (Tpm1.1), recombinant, with Ala-Ser N-terminal extension”, in series [1], the “viscosity after subtraction of the buffer viscosity” value worked out at 0.31 ± 0.01 mPa∙s. Take “wild-type cardiac tropomyosin 1.1 isoform (Tpm1.1), recombinant, with Ala-Ser N-terminal extension (natural protein)”: the Tdiss in series [2] came out at 45.5 °C. Besides, the K50% in series [3] was determined as 2.45 µM.

Consider “human E98K Tpm1.1 mutant (cardiac tropomyosin 1.1 with Glu98Lys), recombinant, with Ala-Ser N-terminal extension”, for which the “viscosity after subtraction of the buffer viscosity” value in series [1] came out at 0.28 ± 0.01 mPa∙s. On to “human E98K Tpm1.1 mutant (cardiac tropomyosin 1.1 with Glu98Lys), recombinant, with Ala-Ser N-terminal extension (natural protein)”, for which the Tdiss in series [2] came out at 42.4 °C. In addition, in series [3], the K50% was 2.57 µM.

For the origin of these results see PMC10419091.
